Test results reported in PMC10448441.

Molecular target: T1, Integrin beta3 (CD61, GP3A), overexpressed on A549-ITGB3-OE cells (Homo sapiens) (UniProt P05106)
T1 sequence: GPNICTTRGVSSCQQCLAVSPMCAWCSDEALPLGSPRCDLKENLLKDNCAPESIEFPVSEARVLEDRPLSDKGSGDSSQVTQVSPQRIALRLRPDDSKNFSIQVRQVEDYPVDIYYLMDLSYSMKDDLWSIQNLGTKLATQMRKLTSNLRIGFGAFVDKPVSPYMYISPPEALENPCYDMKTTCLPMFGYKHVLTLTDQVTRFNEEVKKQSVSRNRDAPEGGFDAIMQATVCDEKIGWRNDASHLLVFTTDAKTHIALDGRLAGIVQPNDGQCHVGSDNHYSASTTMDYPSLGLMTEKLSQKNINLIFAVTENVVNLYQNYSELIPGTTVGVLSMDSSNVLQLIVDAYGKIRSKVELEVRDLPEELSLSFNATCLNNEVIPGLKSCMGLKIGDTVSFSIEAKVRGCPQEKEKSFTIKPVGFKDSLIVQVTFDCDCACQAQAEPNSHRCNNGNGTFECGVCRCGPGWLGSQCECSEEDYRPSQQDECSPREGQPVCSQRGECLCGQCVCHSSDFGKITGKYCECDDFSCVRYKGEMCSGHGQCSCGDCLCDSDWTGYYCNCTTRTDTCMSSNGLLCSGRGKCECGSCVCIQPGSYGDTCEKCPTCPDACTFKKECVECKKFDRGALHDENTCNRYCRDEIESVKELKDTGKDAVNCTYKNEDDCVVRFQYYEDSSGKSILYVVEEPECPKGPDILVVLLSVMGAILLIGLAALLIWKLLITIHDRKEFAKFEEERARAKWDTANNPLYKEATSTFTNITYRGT
Assay: flow cytometry
Settings: live A549-ITGB3-OE cells, FAM label; PBS with 5 mM MgCl2, 4.5 g/L glucose, 100 ug/mL tRNA; 4 C, 30 min; pH not stated; pull-down on ice 30 min

Row | Sequence | Kd [µM]
1 | TCCACGATGTAGGATCCACATGAGCGCTCCTGTTACCCTG [S10yh2] | 0.0612
2 | TTCAGCACTCCACGCATAGCTCCACGATGTAGGATCCACATGAGCGCTCCTGTTACCCTGCCTATGCGTGCTACCGTGAA [S10] | 0.0714
